Our source for the % of input bound values is PMC3197237.

In test [1] the target is GST-AeIAP1 BIR2 (residues 188-278 of AeIAP1) (A. aegypti). The test can be described thus: pull-down.
In test [2] the target is GST-AeIAP1 BIR1 (residues 24-118 of AeIAP1) (A. aegypti). The test can be described thus: pull-down.

Take “activated (cleaved) AeDronc: in vitro translated AeDronc partially processed by active recombinant AeDronc”: the % of input bound in test [1] is 50.2 % of input; in test [2] it was 79.9 % of input.
In the case of “in vitro translated full length AeDronc (enzyme)”, the % of input bound in test [1] is 45.2 % of input; in test [2], 70.9 % of input.
